Measured values reported in PMC7492416 (Nature plants, 2020).

T1: SUMM2-GFP (Arabidopsis thaliana (Col-0 cDNA), UniProt P60838 1-894)
T1 sequence (looked up): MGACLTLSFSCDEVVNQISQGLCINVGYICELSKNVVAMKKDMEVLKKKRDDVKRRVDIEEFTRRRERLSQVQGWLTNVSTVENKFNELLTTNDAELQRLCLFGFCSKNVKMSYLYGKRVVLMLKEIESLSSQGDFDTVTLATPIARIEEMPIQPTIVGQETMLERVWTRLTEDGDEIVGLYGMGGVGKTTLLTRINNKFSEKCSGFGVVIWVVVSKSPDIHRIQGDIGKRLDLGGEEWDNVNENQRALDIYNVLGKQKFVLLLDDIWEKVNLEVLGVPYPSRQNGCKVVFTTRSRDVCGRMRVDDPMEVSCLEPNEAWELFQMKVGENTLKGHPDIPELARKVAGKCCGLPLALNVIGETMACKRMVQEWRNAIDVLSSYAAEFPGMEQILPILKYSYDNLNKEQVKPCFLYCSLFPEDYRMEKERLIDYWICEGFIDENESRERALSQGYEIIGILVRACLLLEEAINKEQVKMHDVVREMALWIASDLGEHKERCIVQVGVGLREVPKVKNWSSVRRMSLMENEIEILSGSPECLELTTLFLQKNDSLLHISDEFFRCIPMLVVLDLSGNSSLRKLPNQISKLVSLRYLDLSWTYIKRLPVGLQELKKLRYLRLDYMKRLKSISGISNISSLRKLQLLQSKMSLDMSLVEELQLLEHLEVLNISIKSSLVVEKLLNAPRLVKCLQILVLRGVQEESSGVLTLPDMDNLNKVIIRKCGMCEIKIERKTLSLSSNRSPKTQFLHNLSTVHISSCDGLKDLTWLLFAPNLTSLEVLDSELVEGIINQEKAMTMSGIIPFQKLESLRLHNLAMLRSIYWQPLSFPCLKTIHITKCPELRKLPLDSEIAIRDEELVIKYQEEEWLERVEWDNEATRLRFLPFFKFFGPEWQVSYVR

T2: BIR2-mCherry (UniProt Q9LSI9 29-605)
T2 sequence (looked up): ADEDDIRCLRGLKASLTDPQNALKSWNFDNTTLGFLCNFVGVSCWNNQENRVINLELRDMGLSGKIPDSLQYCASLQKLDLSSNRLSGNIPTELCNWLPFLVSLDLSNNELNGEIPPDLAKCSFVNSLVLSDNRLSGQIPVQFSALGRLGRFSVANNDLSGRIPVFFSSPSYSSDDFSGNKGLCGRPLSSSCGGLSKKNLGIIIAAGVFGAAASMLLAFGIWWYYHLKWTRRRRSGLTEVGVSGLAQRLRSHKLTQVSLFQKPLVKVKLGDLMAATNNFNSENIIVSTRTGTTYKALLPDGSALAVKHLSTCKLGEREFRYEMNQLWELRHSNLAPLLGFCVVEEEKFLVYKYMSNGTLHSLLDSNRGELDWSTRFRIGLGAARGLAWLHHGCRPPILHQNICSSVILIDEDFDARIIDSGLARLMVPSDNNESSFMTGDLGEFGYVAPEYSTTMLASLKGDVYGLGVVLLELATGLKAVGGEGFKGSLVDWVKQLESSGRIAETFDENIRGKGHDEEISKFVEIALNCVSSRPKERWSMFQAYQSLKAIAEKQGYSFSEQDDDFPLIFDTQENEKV

B1: LET1-GFP (receptor, Arabidopsis thaliana (Col-0 cDNA), UniProt O22187 29-834, looked up)
chain: DTSTYTRPENFYVNCGSDSNVFYGGQTFVGDTNSSTNSVSFTNKGTEVINDQSSVAPEIYRTVRIFRHPSSYKFKLDSLGLHFVRLHFSVVFSRADLLTARFTVSATSGSNHHLKSFSPQNLTNTPRVEEFLLMMNSLEFEIRFVPDHSSLALINAIEVFSAPDDLEIPSASDKNLHTIYRLNVGGEKITPDNDTLGRTWLPDDDDFLYRKDSARNINSTQTPNYVGGLSSATDSTAPDFVYKTAKAMNRSSNEQVGMLMNVTWSFKVKSNHRHFIRIHFSDILSNLSNSDSDFYLFVNGYWRVDVKPSEQPRLASPFFKDVVNVSDGSGLLNISIGTKEANKDAGFLNGLEMMEVLSKSGSDYSNRSSSRVHIITGCAVAAAAASALVFSLLFMVFLKRRRSKKTKPEVEGTVWSPLPLHRGGSSDNRPISQYHNSPLRNLHLGLTIPFTDILSATNNFDEQLLIGKGGFGYVYKAILPDGTKAAIKRGKTGSGQGILEFQTEIQVLSRIRHRHLVSLTGYCEENSEMILVYEFMEKGTLKEHLYGSNLPSLTWKQRLEICIGAARGLDYLHSSGSEGAIIHRDVKSTNILLDEHNIAKVADFGLSKIHNQDESNISINIKGTFGYLDPEYLQTHKLTEKSDVYAFGVVLLEVLFARPAIDPYLPHEEVNLSEWVMFCKSKGTIDEILDPSLIGQIETNSLKKFMEIAEKCLKEYGDERPSMRDVIWDLEYVLQLQMMTNRREAHEEDSTAINSGGSLVAPRLMVSDSFSTNSIFQNGDESKNRFGFTDSSETRVFSQLKISDAR
B2: MEKK2-mCherry (natural protein, Arabidopsis thaliana (Col-0 cDNA), UniProt O81472 1-773, looked up)
chain: MKKSSDKSPVRQHDTATQINSDAVSSSTSFTDSDSTCSFLTPSMEFPDRISFRRIDFSEAAPTGVVLPSTSSELTRSNSSENKIPNEDISVSTSSRYLVFDKILALMKKSPGRRGDKTSPARRLDRSDAVRRNIDYDAGEDSSSLLITRSLDFPNRTSFRVDGVDDGEIDRIYQYIGVSGPEDFAISSDAWKARMEHERSSSDVVNKLKSLDLDSREAGPSGGVVASSSMNHKFQGHDLSEAGSIGVVVASNFTLSESNKIENLNSLRDKEIVDGDMVENRCGIERKPTILVKSRGYLVHNDDVGVGGGIKGVRPPVLNVPRADKEVVDGGTVESKSGIEWKPTILVKSKGYLVSNDGGIKGVTSPVLNLRPTDKEVVDSGTVENRRGIKGVRPSVLKPPPVMKLPPVDLPGSSWDILTHFAPDSEIVRRPSSSSSSENGCDEEEAEDDKVEKEETGDMFIQLEDTTDEACSFTTNEGDSSSTVSNTSPICVSGGSINTSWQKGQLLRQGSFGSVYEAISEDGDFFAVKEVSLLDQGSQAQECIQQLEGEIALLSQLEHQNILRYRGTDKDGSNLYIFLELVTQGSLLELYRRYQIRDSLISLYTKQILDGLKYLHHKGFIHRDIKCATILVDANGTVKLADFGLAKVSKLNDIKSRKETLFWMAPEVINRKDNDGYRSPADIWSLGCTVLEMCTGQIPYSDLEPVEALFRIRRGTLPEVPDTLSLDARHFILKCLKLNPEERPTATELLNHPFVRRPLPSSGSGSTSPLIRR
B3: BAK1-GFP (receptor, Arabidopsis, UniProt Q94F62 26-615, looked up)
chain: NAEGDALSALKNSLADPNKVLQSWDATLVTPCTWFHVTCNSDNSVTRVDLGNANLSGQLVMQLGQLPNLQYLELYSNNITGTIPEQLGNLTELVSLDLYLNNLSGPIPSTLGRLKKLRFLRLNNNSLSGEIPRSLTAVLTLQVLDLSNNPLTGDIPVNGSFSLFTPISFANTKLTPLPASPPPPISPTPPSPAGSNRITGAIAGGVAAGAALLFAVPAIALAWWRRKKPQDHFFDVPAEEDPEVHLGQLKRFSLRELQVASDNFSNKNILGRGGFGKVYKGRLADGTLVAVKRLKEERTQGGELQFQTEVEMISMAVHRNLLRLRGFCMTPTERLLVYPYMANGSVASCLRERPESQPPLDWPKRQRIALGSARGLAYLHDHCDPKIIHRDVKAANILLDEEFEAVVGDFGLAKLMDYKDTHVTTAVRGTIGHIAPEYLSTGKSSEKTDVFGYGVMLLELITGQRAFDLARLANDDDVMLLDWVKGLLKEKKLEALVDVDLQGNYKDEEVEQLIQVALLCTQSSPMERPKMSEVVRMLEGDGLAERWEEWQKEEMFRQDFNYPTHHPAVSGWIIGDSTSQIENEYPSGPR

Assays:
Experiment in all cases: FRET or BRET
MEKK2-mCherry = target: B2
SUMM2-GFP = target: T1, SUMM2-GFP
BIR2-mCherry = target: T2, BIR2-mCherry

Binder: B1
- FRET efficiency (MEKK2-mCherry): 13.1 ± 1.76%

Binder: B2
- FRET efficiency (SUMM2-GFP): 7.99 ± 0.19%

Binder: B3
- FRET efficiency (BIR2-mCherry): 13.5%
